Reference: paper PMC4458174 (DNA repair, 2015)
Where a chain is given by its changes, count along the chain named. Names may count otherwise.

T1: mouse Myh (mMyh), His-tagged (mouse, UniProt Q99P21 1-515)
T1 sequence (looked up): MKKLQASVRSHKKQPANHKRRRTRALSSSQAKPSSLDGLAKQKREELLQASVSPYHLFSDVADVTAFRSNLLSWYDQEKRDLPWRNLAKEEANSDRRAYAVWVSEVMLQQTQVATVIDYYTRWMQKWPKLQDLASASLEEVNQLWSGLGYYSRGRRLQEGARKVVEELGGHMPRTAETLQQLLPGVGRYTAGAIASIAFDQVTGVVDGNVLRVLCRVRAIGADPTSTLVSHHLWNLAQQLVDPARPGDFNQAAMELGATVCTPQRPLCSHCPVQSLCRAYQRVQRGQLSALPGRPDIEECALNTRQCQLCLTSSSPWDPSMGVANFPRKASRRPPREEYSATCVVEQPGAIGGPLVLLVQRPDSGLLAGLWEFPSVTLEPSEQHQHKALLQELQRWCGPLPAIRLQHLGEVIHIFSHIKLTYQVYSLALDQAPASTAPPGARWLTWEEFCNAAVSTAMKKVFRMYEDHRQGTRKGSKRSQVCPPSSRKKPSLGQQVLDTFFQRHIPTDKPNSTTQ

B1: GST-hHus1N(-) (residues 1-133) (domain or fragment, human, UniProt O60921 1-133, looked up)
chain: MKFRAKIVDGACLNHFTRISNMIAKLAKTCTLRISPDKLNFILCDKLANGGVSMWCELEQENFFNEFQMEGVSAENNEIYLELTSENLSRALKTAQNARALKIKLTNKHFPCLTVSVELLSMSSSSRIVTHDI
B2: GST-tagged hHus1 (wild type) (natural protein, human, UniProt O60921 1-280, looked up)
chain: MKFRAKIVDGACLNHFTRISNMIAKLAKTCTLRISPDKLNFILCDKLANGGVSMWCELEQENFFNEFQMEGVSAENNEIYLELTSENLSRALKTAQNARALKIKLTNKHFPCLTVSVELLSMSSSSRIVTHDIPIKVIPRKLWKDLQEPVVPDPDVSIYLPVLKTMKSVVEKMKNISNHLVIEANLDGELNLKIETELVCVTTHFKDLGNPPLASESTHEDRNVEHMAEVHIDIRKLLQFLAGQQVNPTKALCNIVNNKMVHFDLLHEDVSLQYFIPALS
B3: GST-hHus1 V137A (natural protein, human, UniProt O60921 1-280, looked up)
chain: B2 chain with V137A
B4: GST-hHus1 K136A (natural protein, human, UniProt O60921 1-280, looked up)
chain: B2 chain with K136A
B5: GST-hHus1N (residues 1-146) (domain or fragment, human, UniProt O60921 1-146, looked up)
chain: MKFRAKIVDGACLNHFTRISNMIAKLAKTCTLRISPDKLNFILCDKLANGGVSMWCELEQENFFNEFQMEGVSAENNEIYLELTSENLSRALKTAQNARALKIKLTNKHFPCLTVSVELLSMSSSSRIVTHDIPIKVIPRKLWKDL
B6: GST-hHus1C (residues 147-280) (domain or fragment, human, UniProt O60921 147-280, looked up)
chain: QEPVVPDPDVSIYLPVLKTMKSVVEKMKNISNHLVIEANLDGELNLKIETELVCVTTHFKDLGNPPLASESTHEDRNVEHMAEVHIDIRKLLQFLAGQQVNPTKALCNIVNNKMVHFDLLHEDVSLQYFIPALS
B7: GST-hHus1N(+) (residues 1-155) (domain or fragment, human, UniProt O60921 1-155, looked up)
chain: MKFRAKIVDGACLNHFTRISNMIAKLAKTCTLRISPDKLNFILCDKLANGGVSMWCELEQENFFNEFQMEGVSAENNEIYLELTSENLSRALKTAQNARALKIKLTNKHFPCLTVSVELLSMSSSSRIVTHDIPIKVIPRKLWKDLQEPVVPDPD

What follows are binders tested against T1, mouse Myh (mMyh), His-tagged (assay: pull-down).

Binding result, binds:
B1, B2, B3, B4, B5, B6, B7
